How the values were obtained:
human DLL3-his protein = target: T1, human DLL3-his protein (human, UniProt Q9NYJ7 27-492); assay: ELISA
T1 construct: also called human DLL3 protein; DLL3 antigen protein; not shown: His tag
T1 sequence: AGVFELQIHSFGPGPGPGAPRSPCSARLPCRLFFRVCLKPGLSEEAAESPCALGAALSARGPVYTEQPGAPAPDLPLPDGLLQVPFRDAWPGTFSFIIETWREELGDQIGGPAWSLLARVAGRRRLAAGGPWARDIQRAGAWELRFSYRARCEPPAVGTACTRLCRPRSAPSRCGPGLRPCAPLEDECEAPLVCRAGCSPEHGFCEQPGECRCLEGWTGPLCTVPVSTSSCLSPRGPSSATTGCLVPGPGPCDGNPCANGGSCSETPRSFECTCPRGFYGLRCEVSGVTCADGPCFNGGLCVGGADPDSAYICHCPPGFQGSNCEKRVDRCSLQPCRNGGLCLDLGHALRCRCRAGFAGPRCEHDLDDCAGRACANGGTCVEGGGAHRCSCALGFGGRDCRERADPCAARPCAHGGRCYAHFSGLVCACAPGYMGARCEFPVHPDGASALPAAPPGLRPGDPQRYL

[1] = target: T2, mouse DLL3 on CHO K1-mDLL3 cells (mouse, UniProt O88516 33-490); assay: FACS, CHO K1-mDLL3 cells
T2 construct: also called mouse DLL3 recombinant cell line
T2 sequence: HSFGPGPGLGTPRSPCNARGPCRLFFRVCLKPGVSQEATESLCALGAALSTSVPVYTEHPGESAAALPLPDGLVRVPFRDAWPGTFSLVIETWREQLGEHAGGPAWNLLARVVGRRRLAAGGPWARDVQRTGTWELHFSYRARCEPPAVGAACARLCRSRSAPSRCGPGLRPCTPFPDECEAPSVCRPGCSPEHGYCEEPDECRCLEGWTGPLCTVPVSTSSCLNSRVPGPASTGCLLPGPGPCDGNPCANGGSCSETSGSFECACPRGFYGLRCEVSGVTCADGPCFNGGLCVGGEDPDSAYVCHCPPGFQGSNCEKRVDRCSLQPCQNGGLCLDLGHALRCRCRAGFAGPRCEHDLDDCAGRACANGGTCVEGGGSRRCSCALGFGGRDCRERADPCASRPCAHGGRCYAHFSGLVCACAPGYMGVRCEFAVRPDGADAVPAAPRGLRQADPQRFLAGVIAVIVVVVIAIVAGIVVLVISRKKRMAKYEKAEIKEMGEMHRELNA

[2] = target: T3, human DLL3 on CHO-K1 hDLL3 cells (human, UniProt Q9NYJ7 27-492); assay: FACS, CHO-K1 hDLL3 cells
T3 construct: also called human DLL3 recombinant cell line
T3 sequence: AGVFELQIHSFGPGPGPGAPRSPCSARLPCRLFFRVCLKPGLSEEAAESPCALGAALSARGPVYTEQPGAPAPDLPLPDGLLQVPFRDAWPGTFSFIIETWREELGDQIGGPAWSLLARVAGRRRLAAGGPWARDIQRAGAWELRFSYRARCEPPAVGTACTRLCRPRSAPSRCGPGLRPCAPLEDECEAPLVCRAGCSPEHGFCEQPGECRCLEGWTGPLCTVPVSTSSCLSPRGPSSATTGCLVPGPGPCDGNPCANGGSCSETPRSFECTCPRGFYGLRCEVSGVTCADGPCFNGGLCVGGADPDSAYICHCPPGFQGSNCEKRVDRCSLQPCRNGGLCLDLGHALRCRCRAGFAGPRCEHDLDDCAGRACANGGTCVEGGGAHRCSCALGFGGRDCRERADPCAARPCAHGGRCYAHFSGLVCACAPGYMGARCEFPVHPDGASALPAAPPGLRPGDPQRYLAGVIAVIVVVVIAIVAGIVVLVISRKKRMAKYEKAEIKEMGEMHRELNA

[3] = target: T4, monkey DLL3 on CHO K1-cyno DLL3 cells (cynomolgus monkey); assay: FACS, CHO K1-cyno DLL3 cells
T4 construct: also called monkey DLL3 recombinant cell line
T4 chain: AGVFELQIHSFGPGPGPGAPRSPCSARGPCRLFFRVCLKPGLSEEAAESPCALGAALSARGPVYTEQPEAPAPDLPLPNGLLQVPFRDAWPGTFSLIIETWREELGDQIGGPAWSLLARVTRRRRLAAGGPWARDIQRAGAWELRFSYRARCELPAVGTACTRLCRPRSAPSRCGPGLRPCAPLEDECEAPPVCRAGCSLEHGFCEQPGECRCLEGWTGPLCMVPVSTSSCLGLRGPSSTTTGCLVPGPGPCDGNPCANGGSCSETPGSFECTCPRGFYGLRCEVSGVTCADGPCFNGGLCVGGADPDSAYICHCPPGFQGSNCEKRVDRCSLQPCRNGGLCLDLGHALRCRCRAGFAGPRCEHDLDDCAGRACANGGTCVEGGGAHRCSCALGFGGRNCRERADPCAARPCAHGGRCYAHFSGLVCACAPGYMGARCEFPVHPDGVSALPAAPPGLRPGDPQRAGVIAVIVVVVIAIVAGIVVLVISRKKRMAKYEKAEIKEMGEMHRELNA

[4] = target: T5, human DLL3 endogenously expressed on SHP77 and NCI-H82 cells (human, UniProt Q9NYJ7 27-618); assay: FACS, SHP77 and NCI-H82 cells
T5 construct: whole, on cells; cells endogenously expressing DLL3; also called SHP77 cells; SHP-77 cells
T5 sequence (looked up): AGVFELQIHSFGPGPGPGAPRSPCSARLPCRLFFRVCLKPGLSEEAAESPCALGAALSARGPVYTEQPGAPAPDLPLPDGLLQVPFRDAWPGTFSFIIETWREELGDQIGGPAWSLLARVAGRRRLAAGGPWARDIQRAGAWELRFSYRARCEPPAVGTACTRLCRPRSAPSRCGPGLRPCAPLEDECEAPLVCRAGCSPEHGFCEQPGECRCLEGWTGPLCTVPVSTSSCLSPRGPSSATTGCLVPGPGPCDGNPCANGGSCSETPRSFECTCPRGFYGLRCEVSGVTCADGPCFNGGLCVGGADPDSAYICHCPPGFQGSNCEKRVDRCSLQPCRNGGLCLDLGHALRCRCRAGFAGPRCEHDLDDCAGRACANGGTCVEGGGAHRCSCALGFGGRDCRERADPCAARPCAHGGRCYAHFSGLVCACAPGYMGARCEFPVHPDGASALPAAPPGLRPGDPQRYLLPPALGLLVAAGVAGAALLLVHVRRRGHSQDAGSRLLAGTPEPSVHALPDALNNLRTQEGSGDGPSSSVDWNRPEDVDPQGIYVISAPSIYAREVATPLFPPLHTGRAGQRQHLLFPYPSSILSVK

Measured: binding result

B1: Hab009VL1aVH1-hFc (Fc fusion)
scFv (part 1 of 2): DIVMTQSPLSLPVTPGEPASISCRASQTISDYLHWYLQKPGQSPQLLIKYASQSISGVPDRFSGSGSGSDFTLKISRVEAEDVGVYYCQQGHSFPLTFGQGTKLEIK
scFv (part 2 of 2): EVQLVQSGAEVKKPGASVKVSCKASGYTFTSYWMHWVRQAPGQRLEWMGTIYPGNSDTRYNQKFKDRVTITADTSASTAYMELSSLRSEDTAVYYCTRSYDYGDLDYWGQGTTVTVSS
notes: humanized mab009, VL-linker-VH-human IgG1 Fc; not shown: linker; human IgG1 Fc fragment
binds: all assays above

B2: Hab009VL3aVH1-hFc (Fc fusion)
scFv (part 1 of 2): DIVMTQSPLSLPVTPGEPASISCRASQTISDYLHWYLQKSHQSPQLLIKYASQSISGVPDRFSGSGSGTDFTLKISRVEAEDVGVYYCQQGHSFPLTFGQGTKLEIK
scFv (part 2 of 2): EVQLVQSGAEVKKPGASVKVSCKASGYTFTSYWMHWVRQAPGQRLEWMGTIYPGNSDTRYNQKFKDRVTITADTSASTAYMELSSLRSEDTAVYYCTRSYDYGDLDYWGQGTTVTVSS
notes: as for B1
binds: all assays above

B3: Hab009VL2aVH1-hFc (Fc fusion)
scFv (part 1 of 2): DIVMTQSPLSLPVTPGEPASISCRASQTISDYLHWYLQKPGQSPRLLIKYASQSISGVPDRFSGSGSGTDFTLKISRVEAEDVGVYYCQQGHSFPLTFGQGTKLEIK
scFv (part 2 of 2): EVQLVQSGAEVKKPGASVKVSCKASGYTFTSYWMHWVRQAPGQRLEWMGTIYPGNSDTRYNQKFKDRVTITADTSASTAYMELSSLRSEDTAVYYCTRSYDYGDLDYWGQGTTVTVSS
notes: as for B1
binds: all assays above

B4: mab015 scFv-hFc (Fc fusion)
scFv (part 1 of 2): NIVMTQSPKSMSMSVGERVTLSCKASENVGTYVSWFQQKPEQSPKLLIYGASNRYTGVPDRFTGSGSATDFTLTISSVQAEDLADYHCGQFYSFPCTFGGGTKLEIK
scFv (part 2 of 2): EVKLEESGGGLVQPGGSMKLSCVASGITFSNFWMNWVRQSPEKGLEWVAQIRLKSDDYATHYAESVKGRFTISRDDSKGSVYLQMNNLRTEDTGIHYCTTGYYFDYWGQGTTLTVSS
notes: human-murine chimeric scFv-hFc, VL-linker-VH-human IgG1 Fc; not shown: linker; Fc fragment of human IgG1
binds: human DLL3-his protein | [3]

B5: Hab006VL1VH4-hFc (Fc fusion)
scFv (part 1 of 2): DIQMTQSPSSLSASVGDRVTITCRATKSISKYLAWYQQKPGKAPKLLIFSGSTLQSGVPSRFSGSGSGTDFTLTISSLQPEDFATYYCQQHHEYPYTFGGGTKVEIK
scFv (part 2 of 2): EVQLVQSGAEVKKPGASVKVSCKASGYTFTSYWMHWVRQAPGQRLEWMGVIDPSDSLANYNQEFKGRVTLTVDTSSSTAYMELSSLRSEDTAVYYCARDSTVVAPMDYWGQGTTVTVSS
notes: humanized mab006, VL-linker-VH-human IgG1 Fc; also called Hab006VL1VL4-hFc; not shown: linker; human IgG1 Fc fragment
binds: all assays above

B6: Hab006VL4VH1-hFc (Fc fusion)
scFv (part 1 of 2): DIVMTQSPDSLAVSLGERATINCRATKSISKYLAWYQQKPGQTNKLLIFSGSTLQSGVPDRFSGSGSGTDFTLTISSLQAEDVAVYYCQQHHEYPYTFGGGTKVEIK
scFv (part 2 of 2): EVQLVQSGAEVKKPGASVKVSCKASGYTFTSYWMHWVRQAPGQRLEWMGVIDPSDSLANYNQEFKGRVTITVDTSASTAYMELSSLRSEDTAVYYCARDSTVVAPMDYWGQGTTVTVSS
notes: humanized mab006, VL-linker-VH-human IgG1 Fc; also called Hab006VL4VL1-hFc; not shown: linker; human IgG1 Fc fragment
binds: all assays above

B7: Hab006VL4VH2-hFc (Fc fusion)
scFv (part 1 of 2): DIVMTQSPDSLAVSLGERATINCRATKSISKYLAWYQQKPGQTNKLLIFSGSTLQSGVPDRFSGSGSGTDFTLTISSLQAEDVAVYYCQQHHEYPYTFGGGTKVEIK
scFv (part 2 of 2): EVQLVQSGAEVKKPGASVKVSCKASGYTFTSYWMHWVRQAPGQRLEWMGVIDPSDSLANYNQEFKGRVTLTVDTSASTAYMELSSLRSEDTAVYYCARDSTVVAPMDYWGQGTTVTVSS
notes: humanized mab006, VL-linker-VH-human IgG1 Fc; also called Hab006VL4VL2-hFc; not shown: linker; human IgG1 Fc fragment
binds: all assays above

B8: Hab013VL2VH2a-hFc (Fc fusion)
scFv (part 1 of 2): EIVLTQSPATLSLSPGERATLSCRASKSVSTSGFSYMHWYQQKPGQPPRLLIYLASNLESGIPARFSGSGSGTDFTLTISSLEPEDFAVYYCQHSRELPFTFGQGTKLEIK
scFv (part 2 of 2): EVQLVQSGAEVKKPGSSVKVSCKASGYAFSNYWINWVRQAPGQGLEWMGQINPGDGDTIYNSKFKGRVTITADKSTSTAYMELSSLRSEDTAVYYCEREGRNYGDFAYWGQGTTVTVSS
notes: humanized mab013, VL-linker-VH-human IgG1 Fc; not shown: linker; human IgG1 Fc fragment
not listed: [3]
binds: all other assays above

B9: mab010 scFv-hFc (Fc fusion)
scFv (part 1 of 2): DIQMTQSPASLSVSVGETVTITCRASENINSNLAWYQQKQGKSPQLLVYAATNLADGVPSRFSGSGSGTQFSLKISGLQSEDFGSYYCQHFWGLPWTFGGGTKLEIR
scFv (part 2 of 2): QVQLQQSGAELARPGASMKLSCKASGYTFTSYGISWVKQITGQGLEWIGEIFPRSGNTYDNENFRGKATLTADKSSSTAYLEVRSLTSEDSAVYFCARTTVFAPYYFDYWGQGTTLTVSS
notes: as for B4
binds: human DLL3-his protein | [3]

B10: mab009 scFv-hFc (Fc fusion)
scFv (part 1 of 2): DIVMTQSPATLSVTPGDRVSLSCRASQTISDYLHWYQQRSHESPRLLIKYASQSISGIPSRFSGSGSGSDFTLSINSVEPEDVGVYYCQNGHSFPLTFGAGTKLELK
scFv (part 2 of 2): EVQLQQSGTVLARPGASVKMSCKTSGYTFTSYWMHWVKQSPGQGLEWIGTIYPGNSDTRYNQKFKDKAYVTAVTSASTAYMELSSLTNEESAVYYCTRSYDYGDLDYWGQGTTLTVSS
notes: as for B4
binds: human DLL3-his protein

Reference: patent EP4786492A1 (Simcere Zaiming Pharmaceutical Co., Ltd., dated 2026)
